Test in all cases: FRET or BRET
Common to all, as to conditions: remark: other sources report otherwise
In general terms: BRET reads energy transfer from a luciferase to a nearby fluorophore.

Test [1] has as its target T1, CXCR4 fused to CFP (CXCR4-C) or to YFP (CXCR4-Y) (human), P61073.
T1 chain: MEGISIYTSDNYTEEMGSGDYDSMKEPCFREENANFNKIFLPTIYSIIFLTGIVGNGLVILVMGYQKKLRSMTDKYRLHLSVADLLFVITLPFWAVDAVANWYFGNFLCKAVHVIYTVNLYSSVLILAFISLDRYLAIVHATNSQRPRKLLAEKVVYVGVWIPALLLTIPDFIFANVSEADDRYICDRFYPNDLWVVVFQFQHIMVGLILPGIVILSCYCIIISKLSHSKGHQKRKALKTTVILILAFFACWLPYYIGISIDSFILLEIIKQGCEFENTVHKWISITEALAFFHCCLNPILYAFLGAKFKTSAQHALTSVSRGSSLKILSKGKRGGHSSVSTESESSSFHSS

The target of test [2] is T1, CXCR4 fused to CFP (CXCR4-C) or to YFP ….
The target is the same in test [3].

B1: CXCR4 fused to CFP (CXCR4-C) or to YFP (CXCR4-Y), P61073 1-352 (receptor)
chain: MEGISIYTSDNYTEEMGSGDYDSMKEPCFREENANFNKIFLPTIYSIIFLTGIVGNGLVILVMGYQKKLRSMTDKYRLHLSVADLLFVITLPFWAVDAVANWYFGNFLCKAVHVIYTVNLYSSVLILAFISLDRYLAIVHATNSQRPRKLLAEKVVYVGVWIPALLLTIPDFIFANVSEADDRYICDRFYPNDLWVVVFQFQHIMVGLILPGIVILSCYCIIISKLSHSKGHQKRKALKTTVILILAFFACWLPYYIGISIDSFILLEIIKQGCEFENTVHKWISITEALAFFHCCLNPILYAFLGAKFKTSAQHALTSVSRGSSLKILSKGKRGGHSSVSTESESSSFHSS
With B1, the FRET50 came to 1.55 in test [1], 1.61 in test [2] and 1.27 in test [3].

The values are drawn from article PMC3302219.
